Assay results taken from the supplement of paper PMC9170038.

Tested on: MS2 coat protein
Experiment: apparent KD of MS2 coat protein; higher = weaker reporter binding
Settings: Eterna round: R107
In short: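 Designed RNA switches were transcribed on-chip from Illumina sequencing clusters. SNAP-549-labelled MS2 coat protein was titrated onto them in twofold steps from 0.7 or 1.5 nM to 3 µM in 100 mM Tris-HCl pH 7.5, 80 mM KCl, 4 mM MgCl2, either without or with constant ligand. Apparent KD reflects the per-design median of normalised cluster binding-curve fits.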

[1] = input ligand: theophylline 20 uM
[2] = input ligand: tryptophan 2.4 mM
[3] = input ligand: theophylline 2 mM

| Sequence | apparent KD of MS2 coat protein (input ligand: arginine 13.2 mM) [nM] | apparent KD of MS2 coat protein [1] [nM] | apparent KD of MS2 coat protein [2] [nM] | apparent KD of MS2 coat protein (input ligand: none) [nM] | apparent KD of MS2 coat protein [3] [nM] |
| --- | --- | --- | --- | --- | --- |
| CUGCCAUGCAGAGAUACCAGUGAGCUCAAAACAUGAGGAUCACCCAUGUAAAUUGCCGAUCACCCUUGGCAGCUCUGCAUGGCAG [}=%#^] | 13.7 | 10.3 | 9.55 |  |  |
| AUCAUGUAAUCAGAUACCAGACAUCUUUUAAUACAUAUUACAUGAGGAUCACCCAUGUUGGUCCCUUGGCAGCUGAAAUAUUUUU [JR_Nu_SSTheophyB_Sub027] | 128 | 191 | 246 |  |  |
| UGAUUGAACGGAAGGAGCGUGAAGAGAGAGAAACAUGAGGAUCACCCAUGUAGAGAGAGAUCACAGGUAGGUCGCCGAGAGAUUG [11.C] | 17.8 | 20.8 | 17.1 | 15 | 21 |
| GCCGGGCCCUCGGCCGCCACUGAGAGAGUCGUGUGAACAUGAGGAUCACCCAUGUAAUAUAUAUACAGGACCGGGAGGGCCCGGC [4.W] | 11.9 | 21.8 | 11.9 | 13.3 | 13.9 |
| UCACAUGAGGAUCACCCAUGUAAAGUUGAAGGAGCGAUCAUUAGGUCAGGUAGGUCGCAACACAUGAGGAUCACCCAUGUUGUCC [DOUBLE!!! :-D] | 25.7 | 49.9 | 38.3 | 40.8 | 47.1 |
| CCUCAUGUGGUGCUGCACAUGAGAGGUGAUACCAGCAUCGAAAGAUGCCCUUGGCAGCACCAACAUGAGGAUCACCCAUGUAAUA [(M)'-(T)'-(M)''-(T1)-(T2)-(M1)-(M2)_Design1] | 27 | 94 | 25 |  |  |
| UUAGUAACGACGGCCGCCACUGGAUAUGAACAUGAGGAUCACCCAUGUAGAGAUCCUAGAAUAAACAGGACCGGGUCUGAUAAUA [Exclusion Tryptophane B GF 2] | 17.9 | 21.6 |  |  | 17.3 |
| UUCAGCUAGUCGGCCGCCACUACAUGAGGAUCACCCAUGUAGGUCCACACUGCUUCGGCAGUGAGUAGGACCGGGACUAGCUGAG | 7.07 | 15.2 | 15.4 | 9.66 | 10.5 |
| CUCGAGUUAUGAGAUACCAGACUAUAGUUUACAUGAGGAUCACCCAUGUUAUGGGUGGUAGUCCCUUGGCAGCUCAUAUGUUUAA [#06 Exclusion-TheophyllineB] | 210 | 274 | 305 |  |  |
| GGAAUAACGAUUGAUACCAGCAUGUUAACAUGAGGAUCACCCAUGUUAAGGAUAACAUAAUGCCCUUGGCAGCAACGGAAACCCG [#23Same State - Theophylline B] | 16.3 | 19.2 | 17.8 |  |  |
| GGACUAACCAGAAGGAGCGGCACGCAGAAACUGCAAAAUCCUCCACACGAGGAUCACCCGUGUCAGGUAGGUCGCUGGUUAGUCG | 45.8 | 55 | 48.4 | 48.6 | 52.5 |
| UUGUUGUUUGGAAGGAGCGUGUAUGAUUAAGAACAUGAGGAUCACCCAUGUUGUAGGAUAGCACAGGUAGGUCGCCGGGUGGUGG [11.W] | 18.8 | 22.5 | 14.6 | 14.8 | 23.5 |
| AAAAGAGGUGGAAGGAGCGGGAGACAUGAGGAUCACCCAUGUGAAGUGACGAAAGGAUCAGCCCAGGUAGGUCGCCAUGUCGAAA [yuiiumullin] | 31 | 73.2 | 41.3 | 43.9 | 25.9 |
| CAUGUGAAAAUAAGAAGAAGAAGAAUAAAUCGAGGACCGGUACGGCCGCCACUCGUCGAAUCACAUGAGGAUCACCCAUGUAGCC [Tryptofun] | 26.3 | 52.6 |  |  | 69 |
| AUAAUAAUCAUGGGUGAAGGUCCUCGCAAACGAGGACCGGUACGGCCGCCACUCGAACAUGAGGAUCACCCAUGUGUGAGGACCU [M' - T' - T - MS2 - T'' Design 2] | 24.9 | 59.7 |  |  | 74.1 |
| UGUAUGUGAUCUGAUACCAGUCCAACUGGUAAAACCUGAGGAUCACCCGGGUAAAAUUGGGACCCUUGGCAGCAGAUCGCAUACU | 201 | 285 | 683 | 475 | 26 |
| GGCACAUAGUCGGCCGCCACUAGAAUAUAGUGGAAUAACAUGAGGAUCACCCAUGUAUUUGGGACUAGGACCGGGACUAUGUGCC [Bear] | 33.2 | 41.9 | 20.2 | 33.7 | 42.2 |
